Patent US20230203156A1 (WILLIAM ROBERT ARATHOON LIVING TRUST DATED AUGUST 29 2016, published 2023)
“And” between values parts separate entries of the source, which are not always exact repeats. Equal entries are not always repeated. Where two headings read alike, the source gives them in different places.

Legend:
[1] = target: T1, human CD47 (human, UniProt Q08722 19-323); assay: binding to C6 cells expressing human CD47, figure legend
T1 construct: whole, on cells; Overexpressed on rat C6 cells, or endogenous on human tumour cell lines; also called KT14; hKT14

[2] = target: T2, human MDR1 (multidrug resistance protein 1) (human, UniProt P08183 1-1280); assay: cell-based or functional assay
[3] = target: T2, human MDR1 (multidrug resistance …); assay: cell-based or functional assay; remark: listed apart in the source
[4] = target: T3, cynomolgus MDR1 (Macaca fascicularis) (Macaca fascicularis (cynomolgus), UniProt P08183 1-1280 (human entry)); assay: flow cytometry, 293T cells transfected with cynomolgus MDR1
T3 construct: also called cB1; cynomolgus ABCB1

| Binder | IC50 of vincristine on N6/ADR cells with antibody [2] | also measured |
| --- | --- | --- |
| KT14.5F9hu scFv-B1.261.hu1 (bispecific antibody, human IgG1, kappa) scFv: not shown heavy: EVQLQESGPGLVKPSETLSLTCTVSGFSLTSYGVHWVRQPPGKGLEWLVVIWSDGSTTYNSALKSRLTISKDNSKNQVSLKLSSVTAADTAVYYCARHGRWLLQRGGAMDYWGQGTMVTVSSASTKGPSVFPLAPSSKSTSGGTAALGCLVKDYFPEPVTVSWNSGALTSGVHTFPAVLQSSGLYSLSSVVTVPSSSLGTQTYICNVNHKPSNTKVDKRVEPKSCDKTHTCPPCPAPELLGGPSVFLFPPKPKDTLMISRTPEVTCVVVDVSHEDPEVKFNWYVDGVEVHNAKTKPREEQYNSTYRVVSVLTVLHQDWLNGKEYKCKVSNKALPAPIEKTISKAKGQPREPQVCTLPPSREEMTKNQVSLSCAVKGFYPSDIAVEWESNGQPENNYKTTPPVLDSDGSFFLVSKLTVDKSRWQQGNVFSCSVMHEALHNHYTQKSLSLSPGK light: DVQMTQSPSSLSASVGDRVTITCRASQNVGSYIAWYQQKPGKSPKALIYSASYRSSGVPSRFSGSGAGTDFTLTISSLQPEDFATYFCQQYNSYPLTFGGGTKLEIKRTVAAPSVFIFPPSDEQLKSGTASVVCLLNNFYPREAKVQWKVDNALQSGNSQESVTEQDSKDSTYSLSSTLTLSKADYEKHKVYACEVTHQGLSSPVTKSFNRGEC |  | binding result [1]: binds |
| KT14.B6H12hu scFv-B1.261.hu1 (bispecific antibody, human IgG1, kappa) scFv: not shown heavy: EVQLQESGPGLVKPSETLSLTCTVSGFSLTSYGVHWVRQPPGKGLEWLVVIWSDGSTTYNSALKSRLTISKDNSKNQVSLKLSSVTAADTAVYYCARHGRWLLQRGGAMDYWGQGTMVTVSSASTKGPSVFPLAPSSKSTSGGTAALGCLVKDYFPEPVTVSWNSGALTSGVHTFPAVLQSSGLYSLSSVVTVPSSSLGTQTYICNVNHKPSNTKVDKRVEPKSCDKTHTCPPCPAPELLGGPSVFLFPPKPKDTLMISRTPEVTCVVVDVSHEDPEVKFNWYVDGVEVHNAKTKPREEQYNSTYRVVSVLTVLHQDWLNGKEYKCKVSNKALPAPIEKTISKAKGQPREPQVCTLPPSREEMTKNQVSLSCAVKGFYPSDIAVEWESNGQPENNYKTTPPVLDSDGSFFLVSKLTVDKSRWQQGNVFSCSVMHEALHNHYTQKSLSLSPGK light: DVQMTQSPSSLSASVGDRVTITCRASQNVGSYIAWYQQKPGKSPKALIYSASYRSSGVPSRFSGSGAGTDFTLTISSLQPEDFATYFCQQYNSYPLTFGGGTKLEIKRTVAAPSVFIFPPSDEQLKSGTASVVCLLNNFYPREAKVQWKVDNALQSGNSQESVTEQDSKDSTYSLSSTLTLSKADYEKHKVYACEVTHQGLSSPVTKSFNRGEC |  | binding result [1]: binds |
| KT14.5F9hu scFv-B1.28.hu13 (bispecific antibody, human IgG1, kappa) scFv: not shown heavy: EVQLVESGGGLVKPGGSLRLSCAASGFTFGLYTMSWVRQAPGKGLEWVATISSGGSNTYYPDSVKGRFTISRDNAKNSLYLQMNSLRAEDTAVYYCARYYRYDAWFAYWGQGTLVTVSSASTKGPSVFPLAPSSKSTSGGTAALGCLVKDYFPEPVTVSWNSGALTSGVHTFPAVLQSSGLYSLSSVVTVPSSSLGTQTYICNVNHKPSNTKVDKRVEPKSCDKTHTCPPCPAPELLGGPSVFLFPPKPKDTLMISRTPEVTCVVVDVSHEDPEVKFNWYVDGVEVHNAKTKPREEQYNSTYRVVSVLTVLHQDWLNGKEYKCKVSNKALPAPIEKTISKAKGQPREPQVCTLPPSREEMTKNQVSLSCAVKGFYPSDIAVEWESNGQPENNYKTTPPVLDSDGSFFLVSKLTVDKSRWQQGNVFSCSVMHEALHNHYTQKSLSLSPGK light: EVVLTQSPATLSLSPGERATLSCRSSQNIVHSTGNTYLDWYQQKPGQSPRLLIYKVSNRFSGVPARFSGSGSGTDFTLTISSLEPEDFAVYYCFQGSHIPRTFGGGTKLEIKRTVAAPSVFIFPPSDEQLKSGTASVVCLLNNFYPREAKVQWKVDNALQSGNSQESVTEQDSKDSTYSLSSTLTLSKADYEKHKVYACEVTHQGLSSPVTKSFNRGEC |  | binding result [1]: binds |
| KT14.B6H12hu scFv-B1.28.hu13 (bispecific antibody, human IgG1, kappa) scFv: not shown heavy: EVQLVESGGGLVKPGGSLRLSCAASGFTFGLYTMSWVRQAPGKGLEWVATISSGGSNTYYPDSVKGRFTISRDNAKNSLYLQMNSLRAEDTAVYYCARYYRYDAWFAYWGQGTLVTVSSASTKGPSVFPLAPSSKSTSGGTAALGCLVKDYFPEPVTVSWNSGALTSGVHTFPAVLQSSGLYSLSSVVTVPSSSLGTQTYICNVNHKPSNTKVDKRVEPKSCDKTHTCPPCPAPELLGGPSVFLFPPKPKDTLMISRTPEVTCVVVDVSHEDPEVKFNWYVDGVEVHNAKTKPREEQYNSTYRVVSVLTVLHQDWLNGKEYKCKVSNKALPAPIEKTISKAKGQPREPQVCTLPPSREEMTKNQVSLSCAVKGFYPSDIAVEWESNGQPENNYKTTPPVLDSDGSFFLVSKLTVDKSRWQQGNVFSCSVMHEALHNHYTQKSLSLSPGK light: EVVLTQSPATLSLSPGERATLSCRSSQNIVHSTGNTYLDWYQQKPGQSPRLLIYKVSNRFSGVPARFSGSGSGTDFTLTISSLEPEDFAVYYCFQGSHIPRTFGGGTKLEIKRTVAAPSVFIFPPSDEQLKSGTASVVCLLNNFYPREAKVQWKVDNALQSGNSQESVTEQDSKDSTYSLSSTLTLSKADYEKHKVYACEVTHQGLSSPVTKSFNRGEC |  | binding result [1]: binds |
| B1.278 (antibody, human IgG1, V domains shown) VH: QVQLQQSGPELVKPGASVKISCKASGYSFTGYFMNWVMQSHGKSLEWIGRINPYNGDTFYNQKFKGKATLTVDKSSGTAHMELRSLASEDSAVYYCARCYYYGSSSYGMDYWGQGTSVTVSS VL: QIVLTQSPASLAVSLGQRATISCRASESVHNYGVSFMNWFQQRPGQPPKLLIHAASHQGSGVPARFTGSGSGTDFSLNIHPMEEDDIAMYFCQQSKEVPLTFGAGTKLKLK | 0.029 nM |  |
| KB1.269A (antibody, human IgG1, V domains shown) VH: EVQLVESGGASVKPGGSLKLSCAASGFTFSNYAMSWVRQTPEKRLEWVATISSGGSYTYYLDSVKGRFTISRDNAKNTLYLQMSSLRSEDTALYYCARYYVYDAWFAYWGQGTLVTVSA VL: DVVMTQTPLSLPVSLGDQASISCRSSQSIVHSTGNTYLEWYLQKPGQSPKLLIYKVSNRFSGVPDRFSGSGSGTDFTLKISRVEAEDLGVFYCFQGSHVPRTFGGGTKLEIK | 0.0323 nM |  |
| B1.85 (antibody, human IgG1, V domains shown) VH: EVQLVESGGALVKPGGSLKLSCAASGFTFSNYGVSWVRQTPEKRLEWVATISSSGSYTYYPDIVRGRFTISRDNAKNTLYLQMSSLRSEDTAFYYCARGYGNFAWFAYWGQGTLVTVSA VL: DIQMTQSPLSLPVSLGDQASISCRSSQSIVHSTGNTYLEWYLQKPGQSPKLLIYKVSNRFSGVPDRFSGSGSGTDFTLKINRVEAEDLGVYYCFQGSHVPYTFGGGTKLEIK | 0.0345 nM |  |
| B1.39 (antibody, human IgG1, V domains shown) VH: EVMLVESGGGLVKPGGSLKLSCAASGFTFSSYTMSWVRQTPEKRLEWVATVSSGGGNTYYPDSVKGRFTISRDNAKNNLYLQMSSLRSEDTALYYCARYGNYGWFTYWGQGTLVTVSA VL: DVLMTQTPLSLPVSLGDQASISCRSSQSILHSNGNTYLEWYLQKPGQSPKLLIYKVSNRFSGVPDRFSASGSGTDFTLKISRVEAEDLGIYYCFQGSHVPRTFGGGTKLEIK | 0.0909 nM |  |
| B1.30 (antibody, human IgG1, V domains shown) VH: EVMLVESGGGLVKPGGSLKLSCAASGFTFSSYTMSWVRQTPEKRLEWVATISSGGGNTYYPDSVKGRFTISRDNAKNNLYLQMSSLRSEDTALYYCARYYRYDAWFAYWGQGTLVTVSA VL: DVLMTQTPLSLPVSLGDQASISCRSSQSIVHSTGNTYLEWYLQKPGQSPKLLIYKVSNRFSGVPDRFSGSGSGTDFTLKISRVETEDLGVYYCFQGSHVPRTFGGGTKLEIK | 0.0522 nM |  |
| MRK16 (antibody, V domains shown) VH: EVILVESGGGLVKPGGSLKLSCAASGFTFSSYTMSWVRQTPEKRLEWVATISSGGGNTYYPDSVKGRFTISRDNAKNNLYLQMSSLRSEDTALYYCARYYRYEAWFASWGQGTLVTVSA VL: DVLMTQTPVSLSVSLGDQASISCRSSQSIVHSTGNTYLEWYLQKPGQSPKLLIYKISNRFSGVPDRFSGSGSGTDFTLKISRVEAEDLGVYYCFQASHFPRTFGGGTKLEIK |  | IC50 of vincristine on N6/ADR cells with antibody [3]: 0.734 nM |
| B1.28 (antibody, human IgG1, V domains shown, expressed with human IgG1 heavy and human kappa light constant regions; also called KNJY B1-28; KB1.28) VH: EVKLVESGGGLVKPGGSLKLSCAASGFTFGLYTMSWVRQTPERRLEWVATISSGGSNTYYPDSVKGRFTISRDNAKNNLFLQMNSLRSEDTALYYCARYYRYDAWFAYWGQGTLVTVSS VL: DVLLTQTPLSLPVSLGDQASISCRSSQNIVHSTGNTYLDWYLQKPGQSPKLLIYKVSNRFSGVPDRFSGSGSGTDFTLKISRVEAEDLGVYFCFQGSHIPRTFGGGTKLEIK | 3.34 nM and 2.87 nM | binding result [4]: binds |
| B1.275 (antibody, human IgG1, V domains shown) VH: EVMLVESGGALVKPGGSLKVSCAASGFTFSNYAMSWVRQSPEMRLEWVATISSGGTNTYYPDSVKGRFTISRDNARNTLYLQMSSLRSKDTAMYYCARYSNYGWFPYWGQGTTLTVSS VL: DVVMTQTPLSLPVSLGDQASISCRSSQTIVHSDGYTYLEWYLQKPGQSPKLLIYKVSNRFSGVPDRFSGSGSGTDFTLRISRVEAEDLGVYYCFQGSHVPYTFGGGTKLEIK | 0.0781 nM |  |
| B1.99 (antibody, human IgG1, V domains shown) VH: EVQLVESGGALVKPGGSLKLSCAASGFTFSNYAMSWVRQTPERRLEWVATISSGGSYTYYPDSVKGRFTISRDNAKNTLYLQMSSLISEDTALYYCTRGYGNFAWFAYWGHGTLVTVSA VL: DVVMTQTPLSLPVSLGDQVSISCRSSQSIVHSYGSTYLEWYLQKPGQSPKLLIYKVSNRFSGVPDRFSGSGSGTDFTLKISRVEAEDLGVYFCFQGSHIPYTFGGGTKLELK | 0.0619 nM |  |
| B1.276 (antibody, human IgG1, V domains shown) VH: EVKLVESGGALVKPGGSLKLSCAASGFTFRNYAMSWVRQTPEKRLEWVATISSDGSYTYHPDSVKGRFTISRDNARNTLYLQMSSLRSEDTAMYSCTRQGNWGRTWFTYWGQGTLVTVSS VL: QIVLTQSPAIMSASPGEKVTMTCRASSSVSSSYLHWYQQKSGASPKLWIYSTSSLASGVPARFSGSGSGTSYSLTISSVEAEDAATYYCQQYSGYPLTFGAGTKLELK | 0.029 nM |  |
| KB1.273A (antibody, human IgG1, V domains shown) VH: QVQLQQSGPELVKTGASVKISCKASGYSFSNYYIHWVKQSHGKSLEWIGFISCYNGATFYNQKFKGKATFTVDTSSSTAYMKFNSLTFEDSAVYYCARLPIQFGNFYPMDYWGQGTSVTVSS VL: QIVLTQSPAIMSASLGERVTMTCTASSSVSSSYLHWYQQKPGSSPKLWIYSTSNLASGVPARFSGSGSGTSYSLTISSMEAEDAATYYCHQYHRSPPTFGAGTKLELK | 0.0299 nM |  |
